Test results reported in paper PMC10397247.
Where two headings read alike, the source gives them in different places. Values belong to the binder of their own block, whether it stands above or below them.

Key:
Assay in all cases: two-hybrid library CCmax;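 also: natural log of median RNA to DNA barcode read ratio; higher means stronger binding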
APC7524-AA = target: T1, APC7524-AA
T1 chain: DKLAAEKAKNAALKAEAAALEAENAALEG

APC8401-AA = target: T2, APC8401-AA; conditions: mean of both orientations
T2 chain: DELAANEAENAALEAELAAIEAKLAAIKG

APC8516-AA = target: T3, APC8516-AA; conditions: mean of both orientations
T3 chain: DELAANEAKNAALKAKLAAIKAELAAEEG

APC9141-AA = target: T4, APC9141-AA; conditions: mean of both orientations
T4 chain: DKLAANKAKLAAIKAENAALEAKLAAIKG

APC9182-AA = target: T5, APC9182-AA; conditions: mean of both orientations
T5 chain: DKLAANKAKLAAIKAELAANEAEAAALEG

APC9291-AA = target: T6, APC9291-AA; conditions: mean of both orientations
T6 chain: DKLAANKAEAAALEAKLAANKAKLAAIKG

APC9806-AA = target: T7, APC9806-AA; conditions: mean of both orientations
T7 chain: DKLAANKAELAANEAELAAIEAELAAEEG

4H2865-AA = target: T8, 4H2865-AA
T8 chain: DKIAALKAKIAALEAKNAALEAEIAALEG

4H3009-AA = target: T9, 4H3009-AA; conditions: mean of both orientations
T9 chain: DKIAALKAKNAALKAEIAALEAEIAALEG

4H3016-AA = target: T10, 4H3016-AA; conditions: mean of both orientations
T10 chain: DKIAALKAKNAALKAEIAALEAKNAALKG

4H310-AA = target: T11, 4H310-AA; conditions: mean of both orientations
T11 chain: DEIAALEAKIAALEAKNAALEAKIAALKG

4H3120-AA = target: T12, 4H3120-AA; conditions: mean of both orientations
T12 chain: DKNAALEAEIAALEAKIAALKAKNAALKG

4H3130-AA = target: T13, 4H3130-AA; conditions: mean of both orientations
T13 chain: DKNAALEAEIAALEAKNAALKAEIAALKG

4H3165-AA = target: T14, 4H3165-AA; conditions: mean of both orientations
T14 chain: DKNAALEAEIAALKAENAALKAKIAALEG

4H3381-AA = target: T15, 4H3381-AA; conditions: mean of both orientations
T15 chain: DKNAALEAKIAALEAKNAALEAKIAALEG

4H3395-AA = target: T16, 4H3395-AA; conditions: mean of both orientations
T16 chain: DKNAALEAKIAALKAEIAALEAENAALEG

4H3410-AA = target: T17, 4H3410-AA; conditions: mean of both orientations
T17 chain: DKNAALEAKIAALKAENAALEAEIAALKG

4H3590-AA = target: T18, 4H3590-AA; conditions: mean of both orientations
T18 chain: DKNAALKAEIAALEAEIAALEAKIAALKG

4H3697-AA = target: T19, 4H3697-AA
T19 chain: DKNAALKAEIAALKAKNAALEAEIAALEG

4H3753-AA = target: T20, 4H3753-AA; conditions: mean of both orientations
T20 chain: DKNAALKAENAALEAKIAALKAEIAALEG

4H3865-AA = target: T21, 4H3865-AA; conditions: mean of both orientations
T21 chain: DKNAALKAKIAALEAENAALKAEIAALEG

4H458-AA = target: T22, 4H458-AA; conditions: mean of both orientations
T22 chain: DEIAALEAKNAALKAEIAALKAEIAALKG

4H485-AA = target: T23, 4H485-AA; conditions: mean of both orientations
T23 chain: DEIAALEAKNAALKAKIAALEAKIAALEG

4H536-AA = target: T24, 4H536-AA; conditions: mean of both orientations
T24 chain: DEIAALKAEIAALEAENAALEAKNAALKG

4H570-AA = target: T25, 4H570-AA; conditions: mean of both orientations
T25 chain: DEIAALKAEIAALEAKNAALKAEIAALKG

4H629-AA = target: T26, 4H629-AA; conditions: mean of both orientations
T26 chain: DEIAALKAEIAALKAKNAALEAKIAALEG

4H710-AA = target: T27, 4H710-AA; conditions: mean of both orientations
T27 chain: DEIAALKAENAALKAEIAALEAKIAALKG

4H745-AA = target: T28, 4H745-AA; conditions: mean of both orientations
T28 chain: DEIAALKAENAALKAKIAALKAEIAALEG

4H797-AA = target: T29, 4H797-AA; conditions: mean of both orientations
T29 chain: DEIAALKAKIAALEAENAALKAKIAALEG

4H850-AA = target: T30, 4H850-AA; conditions: mean of both orientations
T30 chain: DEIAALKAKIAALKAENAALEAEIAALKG

4H891-AA = target: T31, 4H891-AA; conditions: mean of both orientations
T31 chain: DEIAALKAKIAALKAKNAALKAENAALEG

4H909-AA = target: T32, 4H909-AA; conditions: mean of both orientations
T32 chain: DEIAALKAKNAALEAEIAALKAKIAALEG

4H930-AA = target: T33, 4H930-AA; conditions: mean of both orientations
T33 chain: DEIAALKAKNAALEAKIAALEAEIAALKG

4H94-AA = target: T34, 4H94-AA; conditions: mean of both orientations
T34 chain: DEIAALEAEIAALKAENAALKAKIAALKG

4H662-AA = target: T35, 4H662-AA
T35 chain: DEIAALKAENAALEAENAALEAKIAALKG

4H3449-AA = target: T36, 4H3449-AA
T36 chain: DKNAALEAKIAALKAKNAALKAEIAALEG

4H3619-AA = target: T37, 4H3619-AA; conditions: mean of both orientations
T37 chain: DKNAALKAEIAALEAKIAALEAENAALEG

4H3629-AA = target: T38, 4H3629-AA; conditions: mean of both orientations
T38 chain: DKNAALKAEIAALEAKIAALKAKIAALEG

4H3777-AA = target: T39, 4H3777-AA; conditions: mean of both orientations
T39 chain: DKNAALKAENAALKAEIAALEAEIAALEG

4H380-AA = target: T40, 4H380-AA; conditions: mean of both orientations
T40 chain: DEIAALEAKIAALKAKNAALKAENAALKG

4H3915-AA = target: T41, 4H3915-AA; conditions: mean of both orientations
T41 chain: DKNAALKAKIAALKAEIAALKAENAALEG

4H3974-AA = target: T42, 4H3974-AA; conditions: mean of both orientations
T42 chain: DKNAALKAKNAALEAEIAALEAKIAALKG

4H432-AA = target: T43, 4H432-AA; conditions: mean of both orientations
T43 chain: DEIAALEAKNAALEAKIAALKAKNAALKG

4H446-AA = target: T44, 4H446-AA; conditions: mean of both orientations
T44 chain: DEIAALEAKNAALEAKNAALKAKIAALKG

4H63-AA = target: T45, 4H63-AA
T45 chain: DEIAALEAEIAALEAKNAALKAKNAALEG

4H55-AA = target: T46, 4H55-AA
T46 chain: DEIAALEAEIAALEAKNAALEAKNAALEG

4H2725-AA = target: T47, 4H2725-AA
T47 chain: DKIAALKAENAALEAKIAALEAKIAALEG

APC8191-AA = target: T48, APC8191-AA
T48 chain: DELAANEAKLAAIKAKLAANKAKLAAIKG

APC8910-AA = target: T49, APC8910-AA
T49 chain: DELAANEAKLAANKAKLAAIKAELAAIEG

APC9096-AA = target: T50, APC9096-AA; conditions: mean of both orientations
T50 chain: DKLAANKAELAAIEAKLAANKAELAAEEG

APC9319-AA = target: T51, APC9319-AA; conditions: mean of both orientations
T51 chain: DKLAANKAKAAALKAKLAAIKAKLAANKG

Binder: DKIAALKAKIAALEAKNAALEAEIAALEG [4H2865-AA]
interaction score (4H2865-AA): 0.121
interaction score (4H3009-AA): 2.01
interaction score (4H3016-AA): -1.4
interaction score (4H310-AA): 1.7
interaction score (4H3120-AA): -0.983
interaction score (4H3130-AA): -0.487
interaction score (4H3165-AA): -1.47
interaction score (4H3381-AA): -0.233
interaction score (4H3395-AA): -1.43
interaction score (4H3410-AA): -0.858
interaction score (4H3590-AA): -0.177
interaction score (4H3697-AA; mean of both orientations): -1.95
interaction score (4H3753-AA): -0.663
interaction score (4H3865-AA): -1.3
interaction score (4H458-AA): -0.6
interaction score (4H485-AA): -1.28
interaction score (4H536-AA): 1.01
interaction score (4H570-AA): 1.01
interaction score (4H629-AA): -0.872
interaction score (4H710-AA): -0.988
interaction score (4H745-AA): 0.436
interaction score (4H797-AA): -0.194
interaction score (4H850-AA): 0.586
interaction score (4H891-AA): -1.8
interaction score (4H909-AA): -0.808
interaction score (4H930-AA): -1.5
interaction score (4H94-AA): 1.39

Binder: DEIAALEAEIAALEAKNAALEAKNAALEG [4H55-AA]
interaction score (4H55-AA): -1.54
interaction score (4H662-AA; mean of both orientations): -1.57

Binder: DKIAALKAENAALEAKIAALEAKIAALEG [4H2725-AA]
interaction score (4H2725-AA): 1.47
interaction score (4H2865-AA; mean of both orientations): -1.08
interaction score (4H3009-AA): 1.76
interaction score (4H3016-AA): -0.188
interaction score (4H310-AA): -1.1
interaction score (4H3120-AA): -1.56
interaction score (4H3130-AA): -0.815
interaction score (4H3165-AA): -0.466
interaction score (4H3381-AA): -1.94
interaction score (4H3395-AA): -1.64
interaction score (4H3410-AA): -1.72
interaction score (4H3590-AA): -0.62
interaction score (4H3697-AA): 1.2
interaction score (4H3753-AA): -1.26
interaction score (4H3865-AA): -1.16
interaction score (4H458-AA): 0.908
interaction score (4H485-AA): 1.94
interaction score (4H536-AA): -1.71
interaction score (4H570-AA): -0.95
interaction score (4H629-AA): -0.516
interaction score (4H710-AA): 0.748
interaction score (4H745-AA): 1.36
interaction score (4H797-AA): -1.21
interaction score (4H850-AA): -0.653
interaction score (4H891-AA): -1.64
interaction score (4H909-AA): -0.311
interaction score (4H930-AA): 0.224
interaction score (4H94-AA): -0.91

Binder: DELAANEAKLAAIKAKLAANKAKLAAIKG [APC8191-AA]
interaction score (APC8191-AA): -1.48
interaction score (APC8910-AA): -1.9
interaction score (APC9096-AA): -1.76
interaction score (APC9319-AA): -1.88

Now from value to binder:

interaction score (APC7524-AA): -1.65
interaction score (APC8401-AA): -1.27
interaction score (APC8516-AA): -1.83
interaction score (APC9141-AA): -1.69
interaction score (APC9182-AA): -1.85
interaction score (APC9291-AA): -1.72
interaction score (APC9806-AA): -1.98
Binder: DKLAAEKAKNAALKAEAAALEAENAALEG [APC7524-AA]

interaction score (4H662-AA): 0.217
Binder: DEIAALKAENAALEAENAALEAKIAALKG [4H662-AA]

interaction score (4H3449-AA): -2.07
interaction score (4H3619-AA): -1.01
interaction score (4H3629-AA): -1.65
interaction score (4H3777-AA): -2.46
interaction score (4H380-AA): -1.96
interaction score (4H3915-AA): -1.74
interaction score (4H3974-AA): -0.638
interaction score (4H432-AA): 0.499
interaction score (4H446-AA): -1.41
interaction score (4H63-AA): -1.51
Binder: DKNAALEAKIAALKAKNAALKAEIAALEG [4H3449-AA]
